Values quoted from earlier work, collected in paper PMC10813780.

Target: TLR4 (Homo sapiens) (UniProt O00206)
Sequence of UniProt O00206 (O00206 24-839): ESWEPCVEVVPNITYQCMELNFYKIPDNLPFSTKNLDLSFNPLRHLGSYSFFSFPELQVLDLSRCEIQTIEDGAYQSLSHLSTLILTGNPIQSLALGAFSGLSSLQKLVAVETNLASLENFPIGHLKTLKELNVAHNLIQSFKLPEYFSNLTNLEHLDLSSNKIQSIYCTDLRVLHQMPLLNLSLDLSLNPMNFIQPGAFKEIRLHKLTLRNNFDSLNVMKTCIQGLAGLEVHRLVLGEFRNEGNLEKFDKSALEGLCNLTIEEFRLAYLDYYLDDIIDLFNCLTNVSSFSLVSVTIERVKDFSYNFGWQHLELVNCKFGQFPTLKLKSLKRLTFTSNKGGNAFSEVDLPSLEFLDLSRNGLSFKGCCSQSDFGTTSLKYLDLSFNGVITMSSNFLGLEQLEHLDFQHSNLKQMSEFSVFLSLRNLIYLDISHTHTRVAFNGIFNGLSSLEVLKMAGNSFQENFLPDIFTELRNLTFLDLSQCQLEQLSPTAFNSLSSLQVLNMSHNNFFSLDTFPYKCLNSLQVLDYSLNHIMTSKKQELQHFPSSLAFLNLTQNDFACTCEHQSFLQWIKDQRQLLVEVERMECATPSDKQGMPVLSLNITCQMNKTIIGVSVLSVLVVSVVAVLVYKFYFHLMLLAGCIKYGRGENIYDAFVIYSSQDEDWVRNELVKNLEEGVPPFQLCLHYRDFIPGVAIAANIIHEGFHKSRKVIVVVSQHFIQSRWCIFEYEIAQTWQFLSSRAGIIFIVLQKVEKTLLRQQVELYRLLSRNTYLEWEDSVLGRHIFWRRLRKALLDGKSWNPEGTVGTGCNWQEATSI

API5 (from UniProt Q9BZZ5)
Kd: 430 nM
